The subject of the series is HDM2 (C-terminal HA);p53 (human;human?). Put plainly: pull-down (anti-HA beads, real-time PCR). As to conditions: 100 uM Nutlin-3A (disrupts p53-HDM2); Anti-HA protein G beads; blocked in PBST-3% BSA, IVT HDM2 30 min, Nutlin 1 h, IVT p53 1 h; washes PBST-0.1% BSA then PBS; temperature and pH not given. Background: In qPCR the cycle at which signal appears reflects the starting amount.

As for “2ConA-HDM2 DNA template (two CONA p53 response elements)”, the binding signal (fold reduction of DNA pulled down) is 383.

Source of the values: article PMC3641235.
